Assay [1] has as its target T1, amphyphisin SH3 (AMPH_HUMAN), P49418.
T1 chain: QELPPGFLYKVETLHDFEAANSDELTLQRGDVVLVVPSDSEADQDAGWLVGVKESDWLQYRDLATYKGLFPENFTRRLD
The assay is described as follows: SPOT array.

The target of assay [2] is endophilin SH3 (SH3G2_HUMAN), Q99962. The assay is described as follows: SPOT array.

On to KASRPIKPPGPPIN [Q8WZ42 18722-18736], for which the normalised SPOT signal, Boehringer light units (BLU); mean over the file's lines of this peptide was found to be 48.3 in assay [1] and 2120 in assay [2].
For the molecule IVYSFRRPVWPAVV [Q9Y5I0 277-290], the normalised SPOT signal, Boehringer light units (BLU); mean over the file's lines of this peptide in assay [1] was 27.4; in assay [2], 147.
Turning to ITVSPNKPPAVSPG [Q9UFP7 465-479], the normalised SPOT signal, Boehringer light units (BLU); mean over the file's lines of this peptide in assay [1] was 41.6; in assay [2] it was 59.3.
For IYSTLKRPQVETKI [Q14699 89-102], in that order: 19.8 and 114.
The matching figures for ISFIIKRPFLEPKK [P78347 180-193]: 42.4 and 130.
The matching figures for IRQILSRPERLLFI [Q9C000 395-408]: 973 and 398.
Take ISFHPKRPMHILLH [Q96SZ9 375-388]: the normalised SPOT signal, Boehringer light units (BLU); mean over the file's lines of this peptide in assay [1] came out at 56.1; in assay [2] it was 524.
The matching figures for ALSRLARPQRLPVA [P80365 68-81]: 1350 and 492.
For ISRRLRRPPHVGRA [O00155 224-237], in that order: 56.5 and 5.9.
Turning to KAPPPTRPKRNDST [Q9C0I2 1104-1117], the figures for the normalised SPOT signal, Boehringer light units (BLU); mean over the file's lines of this peptide in assay [1] and in assay [2] were 8570 and 3140, respectively.
Take KAGRPSKPPSPKQN [Q9P2M4 294-308]: the normalised SPOT signal, Boehringer light units (BLU); mean over the file's lines of this peptide worked out at 28 in assay [1] and 3150 in assay [2].
The matching figures for ISFHPKRPVHILLH [Q96T13 405-418]: 27.3 and 173.
Consider ISTPPSRPPQVKTA [Q01826 463-477], for which the normalised SPOT signal, Boehringer light units (BLU); mean over the file's lines of this peptide worked out at 216 in assay [1] and 1960 in assay [2].
For IRGLLARPAKLQVQ [P07202 539-552], in that order: 97.3 and 54.1.
For IYTELSRPSKRRMQ [Q9UJU8 278-291], in that order: 85 and 60.3.
As for KAISFLRPTKENVD [Q9Y4Z6 67-80], the normalised SPOT signal, Boehringer light units (BLU); mean over the file's lines of this peptide came to 56.2 in assay [1] and 68.6 in assay [2].
With KAGSISRPAKDESD [Q9H2U9 455-468], the normalised SPOT signal, Boehringer light units (BLU); mean over the file's lines of this peptide in assay [1] turned out to be 164; in assay [2], 127.
On to ISELIKRPNVSPKV [Q9NX58 81-94], for which the values for the normalised SPOT signal, Boehringer light units (BLU); mean over the file's lines of this peptide in assay [1] and in assay [2] were 30.6 and 14.7, respectively.
The matching figures for ISWGLRRPIRLQMQ [P50749 58-71]: 929 and 730.
The matching figures for IRFKLKRPLEDGGR [O95444 196-209]: 38.3 and 39.9.
With IVKQIRRPKHVVVK [Q9Y4F1 101-114], the normalised SPOT signal, Boehringer light units (BLU); mean over the file's lines of this peptide was 13 in assay [1] and 43.3 in assay [2].
The matching figures for IRSALKRPVEQPLG [P48165 231-244]: 26.3 and 0.
For the molecule KAFPPPRPPPPNWE [Q9ULL8 1100-1114], the normalised SPOT signal, Boehringer light units (BLU); mean over the file's lines of this peptide in assay [1] worked out at 146; in assay [2] it was 13600.
Regarding IYVSLKRPSWMVDN [P42702 4-17], the values for the normalised SPOT signal, Boehringer light units (BLU); mean over the file's lines of this peptide in assay [1] and in assay [2] were 56.9 and 46.4, respectively.
For AAPFPDRPPAHLVS [Q9P283 1-15], in that order: 48.1 and 90.4.
With ALTSPGRPPMGFTT [BAC03837 101-115], the normalised SPOT signal, Boehringer light units (BLU); mean over the file's lines of this peptide in assay [1] turned out to be 51.2; in assay [2], 260.
For the molecule IRLSPNRPPLGGSS [P98161 2462-2476], the results for the normalised SPOT signal, Boehringer light units (BLU); mean over the file's lines of this peptide in assay [1] and in assay [2] were 186 and 1100, respectively.
The matching figures for ITGTLKRPSLPEEE [O14514 1249-1262]: 36.3 and 18.8.
In the case of ITLTPVRPDRTPRP [Q9H5F9 434-447], the normalised SPOT signal, Boehringer light units (BLU); mean over the file's lines of this peptide in assay [1] turned out to be 6730; in assay [2] it was 6160.
On to KANSPEKPPEAGAA [Q9UFC0 257-271], for which the normalised SPOT signal, Boehringer light units (BLU); mean over the file's lines of this peptide in assay [1] worked out at 40.8; in assay [2], 47.6.
The matching figures for ALTLPRRPFLHSST [Q9H6Z2 106-119]: 1530 and 7630.
Turning to KAVLPLRPPWPLWG [AAH32349 3-17], the normalised SPOT signal, Boehringer light units (BLU); mean over the file's lines of this peptide in assay [1] came out at 100; in assay [2], 11600.
The matching figures for ISSVPRRPARALHP [Q9HBK4 869-882]: 12900 and 5010.
With IRLPPARPPTPGRS [AAM34265 504-518], the normalised SPOT signal, Boehringer light units (BLU); mean over the file's lines of this peptide in assay [1] stood at 4960; in assay [2], 19900.
As to ISSQIERPIRIVAL [O75643 1042-1055], the normalised SPOT signal, Boehringer light units (BLU); mean over the file's lines of this peptide in assay [1] was 535; in assay [2], 173.
For ISMKFLRPLRVLSQ [Q01118 1027-1040], in that order: 13100 and 925.
The matching figures for ISHRLRRPGAPPST [Q9H669 126-139]: 9.8 and 120.
For ITKSLRRPETSYRQ [P24821 757-770], in that order: 39.1 and 46.8.

Values taken from article PMC314469, “Protein Interaction Networks by Proteome Peptide Scanning” (PLoS Biology, 2004).
